Results as given in US20220267400.

What was measured:
[1] = biological target: T1, Construct A (mIL2- 2x(SG4) - MMPcs1 - 2x(G4S) - IL2Ralpha - 6His)
T1 chain: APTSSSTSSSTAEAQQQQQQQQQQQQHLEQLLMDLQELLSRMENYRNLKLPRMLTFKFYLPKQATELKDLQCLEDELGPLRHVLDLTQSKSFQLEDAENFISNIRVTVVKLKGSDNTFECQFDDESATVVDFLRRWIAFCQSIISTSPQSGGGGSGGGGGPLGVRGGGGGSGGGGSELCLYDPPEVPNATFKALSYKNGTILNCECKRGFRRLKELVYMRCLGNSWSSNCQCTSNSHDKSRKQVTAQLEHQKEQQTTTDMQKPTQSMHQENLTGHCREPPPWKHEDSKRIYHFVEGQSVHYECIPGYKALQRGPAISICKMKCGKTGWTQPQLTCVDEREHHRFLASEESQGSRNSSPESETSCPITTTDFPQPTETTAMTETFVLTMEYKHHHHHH

[2] = biological target: T2, Construct B (m IL2-2x(SG4) - MMPcs1 - 2x (G4S) - IL2Ralpha - mIgG1 Fc)
T2 chain: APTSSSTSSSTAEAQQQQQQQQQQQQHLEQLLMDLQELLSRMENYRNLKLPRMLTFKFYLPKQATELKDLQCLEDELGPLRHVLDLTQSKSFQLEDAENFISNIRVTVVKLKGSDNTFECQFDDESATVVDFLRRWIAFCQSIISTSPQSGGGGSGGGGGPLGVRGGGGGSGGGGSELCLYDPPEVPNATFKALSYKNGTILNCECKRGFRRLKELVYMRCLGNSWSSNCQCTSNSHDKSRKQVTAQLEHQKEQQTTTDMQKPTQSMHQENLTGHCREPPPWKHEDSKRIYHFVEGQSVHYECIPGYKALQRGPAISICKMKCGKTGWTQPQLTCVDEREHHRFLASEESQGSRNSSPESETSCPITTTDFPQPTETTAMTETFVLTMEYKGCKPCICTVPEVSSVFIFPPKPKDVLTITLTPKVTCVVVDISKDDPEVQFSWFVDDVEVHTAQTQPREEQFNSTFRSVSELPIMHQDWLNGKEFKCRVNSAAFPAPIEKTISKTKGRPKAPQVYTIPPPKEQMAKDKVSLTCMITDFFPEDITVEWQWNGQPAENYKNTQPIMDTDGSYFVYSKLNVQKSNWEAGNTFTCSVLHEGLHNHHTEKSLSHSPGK

[3] = biological target: Construct E (Hu IL2(C125S)- 2x(SG4) - MMPcs1 - 2x(G4S) - IL2Ralpha - hu IgG1 Fc - 6xHIS)
Construct E (Hu IL2(C125S)- 2x(SG4) - MMPcs1 - 2x(G4S) - IL2Ralpha - hu IgG1 Fc - 6xHIS), sequence (chain, as listed by the source C125S): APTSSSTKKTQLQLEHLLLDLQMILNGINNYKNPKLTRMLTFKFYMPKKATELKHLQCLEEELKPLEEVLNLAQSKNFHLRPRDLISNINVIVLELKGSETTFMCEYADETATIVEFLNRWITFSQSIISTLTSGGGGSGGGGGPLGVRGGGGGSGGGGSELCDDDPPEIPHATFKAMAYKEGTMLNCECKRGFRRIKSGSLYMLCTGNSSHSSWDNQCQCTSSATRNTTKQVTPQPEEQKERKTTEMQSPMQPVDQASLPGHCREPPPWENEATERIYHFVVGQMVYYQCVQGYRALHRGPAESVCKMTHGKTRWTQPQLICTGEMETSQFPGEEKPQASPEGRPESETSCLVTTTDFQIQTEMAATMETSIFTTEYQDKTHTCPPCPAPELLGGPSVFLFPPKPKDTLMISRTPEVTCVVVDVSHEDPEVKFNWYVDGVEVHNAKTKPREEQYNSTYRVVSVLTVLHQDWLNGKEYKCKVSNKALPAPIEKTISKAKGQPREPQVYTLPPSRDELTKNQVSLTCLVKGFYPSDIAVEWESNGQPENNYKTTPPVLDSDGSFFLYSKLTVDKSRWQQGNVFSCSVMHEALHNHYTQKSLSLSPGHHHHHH

B1: Recombinant MMP9 (R&D Systems), activated with p-aminophenylmercuric acetate (protein)
chain: FQTFKGLKWDHHNITYWIQNYSEDLPRDMIDDAFARAFAVWGEVAPLTFTRVYGPEADIVIQFGVAEHGDGYPFDGKDGLLAHAFPPGAGVQGDAHFDDDELWSLGKGVVIPTYYGNSNGAPCHFPFTFEGRSYSACTTDGRNDGTPWCSTTADYDKDGKFGFCPSERLYTEHGNGEGKPCVFPFIFEGRSYSACTTKGRSDGYRWCATTANYDQDKLYGFCPTRVDATVVGGNSAGELCVFPFVFLGKQYSSCTSDGRRDGRLWCATTSNFDTDKKWGFCPDQGYSLFLVAAHEFGHALGLDHSSVPEALMYPLYSYLEGFPLNKDDIDGIQYLYGRGSKPDPRPPATTTTEPQPTAPPTMCPTIPPTAYPTVGPTVGPTGAPSPGPTSSPSPGPTGAPSPGPTAPPTAGSSEASTESLSPADNPCNVDVFDAIAEIQGALHFFKDGWYWKFLNHRGSPLQGPFLTARTWPALPATLDSAFEDPQTKRVFFFSGRQMWVYTGKTVLGPRSLDKLGLGPEVTHVSGLLPRRLGKALLFSKGRVWRFDLKSQKVDPQSVIRVDKEFSGVPWNSHDIFQYQDKAYFCHGKFFWRVSFQNEVNKVDHEVNQVDDVGYVTYDLLQCP
B1 was tested, and the “cleavage of the fusion protein, SDS-PAGE and Western blot” value (shortened to “cleavage … SDS-PAGE and Western blot”) [1] was “essentially complete cleavage of the fusion proteins by MMP9 protease was seen after overnight incubation”, the “cleavage of the fusion protein, Western blot” value [1] was “Cleavage product was detectable at 1 hour, and the full-length cytokine prodrug was substantially undetectable at the overnight +MMP time point” and the “cleavage … SDS-PAGE and Western blot” value [2] was “essentially complete cleavage of the fusion proteins by MMP9 protease was seen after overnight incubation”. The “cleavage of the fusion protein, Western blot” value [2] was “Cleavage product was detectable at 1 hour, and the full-length cytokine prodrug gave only a faint band at the 20 hour +MMP time point”, the “cleavage … SDS-PAGE and Western blot” value [3] was “essentially complete cleavage of the fusion proteins by MMP9 protease was seen after overnight incubation” and the “cleavage of the fusion protein, Western blot” value [3] was “Cleavage product was detectable at 1 hour, and the full-length cytokine prodrug gave essentially no band at the 22 hour +MMP time point”.
